Test results from paper PMC3858243, “Escherichia coli Ribosomal Protein S1 Unfolds Structured mRNAs Onto the Ribosome for Active Translation Initiation”.

What was measured:
Experiment in all cases: EMSA; Not given in the material for EMSA, SPR and filter binding (buffer with monovalent ions and MgCl2; RNA renatured 90°C 1 min, ice, then 25°C 30 min)
[1] = biological target: S1Δ4-6 (Escherichia coli, UniProt P0AG67 1-279); conditions: protein: recombinant; tags: C-terminal His6; label: 5' 32P; pseudoknot
[2] = biological target: ribosomal protein S1 wild type (Escherichia coli, UniProt P0AG67 1-557)
[3] = biological target: S1Δ3-6 (Escherichia coli, UniProt P0AG67 1-170); conditions: protein: recombinant; tags: C-terminal His6; label: 5' 32P; pseudoknot

B1: mut-psk-rpsOSD (structured_RNA)
RNA: GGGAUCGCUGAAUUAGAGAUCGGCGUCCUUUCAUUCUAUAUAGUAAGGAGGUUAAAAUGUCUCUAAGU
[1]
  binding signal: 5 fold weaker than WT S1
[2]
  apparent K (half saturation): ~447 nM
[3]
  binding result: no binding
